B1: IgaA fused to the T18 or the T25 fragment of adenylate cyclase (natural protein, E. coli, UniProt P45800 1-711, looked up)
chain: MSTIVIFLAALLACSLLAGWLIKVRSRRRQLPWTNAFADAQTRKLTPEERSAVENYLESLTQVLQVPGPTGASAAPISLALNAESNNVMMLTHAITRYGISTDDPNKWRYYLDSVEVHLPPFWEQYINDENTVELIHTDSLPLVISLNGHTLQEYMQETRSYALQPVPSTQASIRGEESEQIELLNIRKETHEEYALSRPRGLREALLIVASFLMFFFCLITPDVFVPWLAGGALLLLGAGLWGLFAPPAKSSLREIHCLRGTPRRWGLFGENDQEQINNISLGIIDLVYPAHWQPYIAQDLGQQTDIDIYLDRHVVRQGRYLSLHDEVKNFPLQHWLRSTIIAAGSLLVLFMLLFWIPLDMPLKFTLSWMKGAQTIEATSVKQLADAGVRVGDTLRISGTGMCNIRTSGTWSAKTNSPFLPFDCSQIIWNDARSLPLPESELVNKATALTEAVNRQLHPKPEDESRVSASLRSAIQKSGMVLLDDFGDIVLKTADLCSAKDDCVRLKNALVNLGNSKDWDALVKRANAGKLDGVNVLLRPVSAESLDNLVATSTAPFITHETARAAQSLNSPAPGGFLIVSDEGSDFVDQPWPSASLYDYPPQEQWNAFQKLAQMLMHTPFNAEGIVTKIFTDANGTQHIGLHPIPDRSGLWRYLSTTLLLLTMLGSAIYNGVQAWRRYQRHRTRMMEIQAYYESCLNPQLITPSESLIE
notes: IgaA (E. coli homolog, gene yrfF), five-pass inner membrane protein; Two fusions of the same protein, each chain with ONE of the two tags: T18 (pEAW1) or T25 (pEAW2); also called YrfF; IgaA-T18; source: bacterial two-hybrid (BACTH) fusion, expressed from a plasmid in E. coli BTH101; not shown: T18 fragment of Bordetella adenylate cyclase (Cya), C-terminal, kept; T25 fragment of Bordetella …
B2: RcsD fused to the T25 or the T18 fragment of adenylate cyclase (natural protein, E. coli, UniProt P39838 1-890, looked up)
chain: MRQKETTATTRFSLLPGSITRFFLLLIIVLLVTMGVMVQSAVNAWLKDKSYQIVDITHAIQKRVDNWRYVTWQIYDNIAATTSPSSGEGLQETRLKQDVYYLEKPRRKTEALIFGSHDNSTLEMTQRMSTYLDTLWGAENVPWSMYYLNGQDNSLVLISTLPLKDLTSGFKESTVSDIVDSRRAEMLQQANALDERESFSNMRRLAWQNGHYFTLRTTFNQPGHLATVVAFDLPINDLIPPGMPLDSFRLEPDATATGNNDNEKEGTDSVSIHFNSTKIEISSALNSTDMRLVWQVPYGTLLLDTLQNILLPLLLNIGLLALALFGYTTFRHFSSRSTENVPSTAVNNELRILRAINEEIVSLLPLGLLVHDQESNRTVISNKIADHLLPHLNLQNITTMAEQHQGIIQATINNELYEIRMFRSQVAPRTQIFIIRDQDREVLVNKKLKQAQRLYEKNQQGRMIFMKNIGDALKEPAQSLAESAAKLNAPESKQLANQADVLVRLVDEIQLANMLADDSWKSETVLFSVQDLIDEVVPSVLPAIKRKGLQLLINNHLKAHDMRRGDRDALRRILLLLMQYAVTSTQLGKITLEVDQDESSEDRLTFRILDTGEGVSIHEMDNLHFPFINQTQNDRYGKADPLAFWLSDQLARKLGGHLNIKTRDGLGTRYSVHIKMLAADPEVEEEEERLLDDVCVMVDVTSAEIRNIVTRQLENWGATCITPDERLISQDYDIFLTDNPSNLTASGLLLSDDESGVREIGPGQLCVNFNMSNAMQEAVLQLIEVQLAQEEVTESPLGGDENAQLHASGYYALFVDTVPDDVKRLYTEAATSDFAALAQTAHRLKGVFAMLNLVPGKQLCETLEHLIREKDVPGIEKYISDIDSYVKSLL
notes: RcsD, phosphotransfer protein of the Rcs phosphorelay, inner membrane protein, 890 aa; Two fusions of the same protein, each chain with ONE of the two tags: T25 (pEAW8) or T18 (pEAW7); also called RcsD-T25; RcsD-T18; source: bacterial two-hybrid (BACTH) fusion, expressed from a plasmid in E. coli BTH101; not shown: T25 fragment of Bordetella adenylate cyclase (Cya), C-terminal, kept; T18 fragment …

Legend:
[1] = biological target: B2; assay: two-hybrid; bacterial adenylate cyclase two-hybrid (BACTH): T18 and T25 fragments fused C-terminally to the two proteins, two plasmids in cyaA deficient E. coli BTH101; beta-galactosidase activity (Miller units) against fusion plus empty cognate vector as background; threshold for reliable interaction 4x over background; IgaA/RcsD also tested in rcsB, rcsC, rcsF and rcsD mutant hosts; in the rows the T25 fusion is …; conditions: partners not purified
[2] = biological target: B1; assay: as above; conditions: partners not purified

B1
beta-galactosidase activity [1]: ≥ 1000 Miller units | beta-galactosidase activity, fold over either fusion paired with an empty cognate vector [1]: ~20 fold

B2
beta-galactosidase activity, fold over either fusion paired with an empty cognate vector [2]: ~20 fold | beta-galactosidase level, fold over the single construct (background) controls [2]: > 30 fold
